The values below come from PMC8800109 (iScience, 2022).

Test [1] addresses ustekinumab-YTE (human). Briefly: SPR. (Surface plasmon resonance follows binding to a sensor surface in real time, without labels.)
For test [2], the target named is briakinumab (human). Briefly: SPR.
Test [3] addresses ustekinumab (human). The test can be described thus: SPR.
For test [4], the target named is briakinumab-YTE (human). Briefly: SPR.
The target in the next test is ustekinumab/IL12 (human) (UniProt P29460). Briefly: MST.
The target of test [5] is ustekinumab-YTE/IL12 (human) (UniProt P29460). Briefly: MST.
Test [6] deals with ustekinumab-YTE (human). The test can be described thus: MST.
Test [7] addresses briakinumab/IL12 (human) (UniProt P29460). Briefly: MST.
Test [8] has as its target briakinumab (human). The test can be described thus: MST.
Test [9] has as its target ustekinumab (human). The test can be described thus: MST.
Test [10] concerns the target briakinumab-YTE/IL12 (human) (UniProt P29460). The test can be described thus: MST.
In test [11] the target is briakinumab-YTE (human). The test can be described thus: MST.
The target of test [12] is ustekinumab-YTE/IL12 (human) (UniProt P29460). The test can be described thus: MST. The source holds these as a separate data set.
Test [13] deals with briakinumab/IL12 (human) (UniProt P29460). The test can be described thus: MST. The source holds these as a separate data set.
For test [14], the target named is briakinumab (human). The test can be described thus: MST. This is another data set of the same source.
Test [15] concerns the target briakinumab-YTE/IL12 (human) (UniProt P29460). The test can be described thus: MST. The source holds these as a separate data set.
Test [16] addresses briakinumab-YTE (human). Briefly: MST. The source holds these as a separate data set.
For test [17], the target named is recombinant form of hFcRn immobilized on the analytical FcRn column (UniProt P55899). The test can be described thus: analytical hFcRn affinity chromatography.
A further test has as its target recombinant human IL-12 (Homo sapiens, UniProt P29460;P29459). The test can be described thus: ELISA.

Read-outs that look alike come from different tables or passages of the source.

Chain of recombinant form of hFcRn immobilized on the analytical FcRn column (P55899 24-297, chain 1 of 2): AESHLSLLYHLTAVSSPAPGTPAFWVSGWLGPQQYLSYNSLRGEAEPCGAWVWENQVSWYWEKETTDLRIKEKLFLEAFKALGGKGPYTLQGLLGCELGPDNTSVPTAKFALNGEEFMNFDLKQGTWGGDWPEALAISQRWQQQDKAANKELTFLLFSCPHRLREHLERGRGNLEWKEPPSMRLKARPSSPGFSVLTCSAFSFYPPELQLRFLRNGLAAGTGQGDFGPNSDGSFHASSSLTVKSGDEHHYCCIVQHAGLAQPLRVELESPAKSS
Chain of recombinant form of hFcRn immobilized on the analytical FcRn column (P61769 21-119, chain 2 of 2, further chain): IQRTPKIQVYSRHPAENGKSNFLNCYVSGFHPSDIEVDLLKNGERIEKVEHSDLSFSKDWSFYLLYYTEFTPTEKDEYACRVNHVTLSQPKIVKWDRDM

By Kd is commonly meant the concentration at which binding is half-saturated. Higher therefore signals weaker binding. “truncated monomeric His-tagged hFcRn (from UniProt P55899 24-365; P61769 21-119) (receptor)”: the dissociation constant Kd with ustekinumab-YTE (human) [1] was found to be 95.5 nM; with briakinumab (human) [2] it was 545 nM; with ustekinumab (human) [3], 653 nM; with briakinumab-YTE (human) [4], 64 nM; with ustekinumab/IL12 (human) it was 1000 nM; in [5], 78 nM. The equilibrium dissociation constant (Kd) with ustekinumab-YTE (human) [6] is 100 nM; with briakinumab/IL12 (human) [7] it was 533 nM; with briakinumab (human) [8], 599 nM; with ustekinumab (human) [9], 497 nM; in test [10], 98 nM; with briakinumab-YTE (human) [11] it was 79 nM. Also, the Kd was more than 20000 nM in test [12]; more than 10000 nM with briakinumab/IL12 (human) [13]; more than 25000 nM with briakinumab (human) [14]; more than 4000 nM in test [15]; more than 20000 nM with briakinumab-YTE (human) [16].

In the case of ustekinumab (antibody), the elution pH from the hFcRn column in test [17] is 7.2 pH.

For the molecule ustekinumab-YTE (antibody), the elution pH from the hFcRn column in [17] stood at 7.9 pH.

B1: briakinumab (antibody, V domains shown)
VH: QVQLVESGGGVVQPGRSLRLSCAASGFTFSSYGMHWVRQAPGKGLEWVAFIRYDGSNKYYADSVKGRFTISRDNSKNTLYLQMNSLRAEDTAVYYCKTHGSHDNWGQGTMVTVSS
VL: QSVLTQPPSVSGAPGQRVTISCSGSRSNIGSNTVKWYQQLPGTAPKLLIYYNDQRPSGVPDRFSGSKSGTSASLAITGLQAEDEADYYCQSYDRYTHPALLFGTGTKVTVL
With B1, the binding result with recombinant human IL-12 is reported as “binds”.

B2: briakinumab-YTE (antibody, V domains shown)
VH: QVQLVESGGGVVQPGRSLRLSCAASGFTFSSYGMHWVRQAPGKGLEWVAFIRYDGSNKYYADSVKGRFTISRDNSKNTLYLQMNSLRAEDTAVYYCKTHGSHDNWGQGTMVTVSS
VL: QSVLTQPPSVSGAPGQRVTISCSGSRSNIGSNTVKWYQQLPGTAPKLLIYYNDQRPSGVPDRFSGSKSGTSASLAITGLQAEDEADYYCQSYDRYTHPALLFGTGTKVTVL
In the case of B2, the binding result with recombinant human IL-12 is given as “binds”.
